Laboratory results reported in doi:10.1101/2025.06.15.659787.

Biological target: [2Fe-2S]-bound Mtb-SufU (sulfide transfer protein SufU, Rv1465, of Mycobacterium tuberculosis H37Rv) (Mycobacterium tuberculosis H37Rv) (UniProt O53156)
Test: SEC-MALS

[2Fe-2S]-bound Mtb-SufU (sulfide transfer protein SufU, Rv1465, of Mycobacterium tuberculosis H37Rv) (from UniProt O53156 1-162) (natural protein)
stoichiometry N: 4
